Measured values: patent US20180201654A1 (UNIVERSITY OF SOUTHERN CALIFORNIA, published 2018)

Tests used:
[1] = target: T1, HAUSP (Herpes virus-associated ubiquitin-specific protease), full length (human, UniProt Q93009 1-1102); assay: co-immunoprecipitation from transfected 293T cells, IP: V5, IB: Flag
T1 construct: also called USP7; Flag-HAUSP

[2] = target: T1, HAUSP (Herpes virus-associated …); assay: GST pulldown from transfected 293T cells, IB: Flag
[3] = target: T2, HAUSP TRAF domain (HAUSP^62-205) (human, UniProt Q93009 62-205); assay: ITC, titration against the HAUSP TRAF domain, 20 C
T2 construct: also called TRAF-like domain of HAUSP
T2 sequence (Q93009 62-205): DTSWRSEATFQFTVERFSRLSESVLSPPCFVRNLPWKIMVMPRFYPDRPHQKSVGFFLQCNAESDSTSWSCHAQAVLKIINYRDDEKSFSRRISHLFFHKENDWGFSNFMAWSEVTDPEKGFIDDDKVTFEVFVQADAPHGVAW

[4] = target: T1, HAUSP (Herpes virus-associated …); assay: GST pulldown from transfected cells, immunoblot with anti-HAUSP antibody
[5] = target: T1, HAUSP (Herpes virus-associated …); assay: co-immunoprecipitation from transfected 293T cells, IP: V5, IB: Flag; remark: listed apart in the source

T1 sequence (Q93009 whole entry): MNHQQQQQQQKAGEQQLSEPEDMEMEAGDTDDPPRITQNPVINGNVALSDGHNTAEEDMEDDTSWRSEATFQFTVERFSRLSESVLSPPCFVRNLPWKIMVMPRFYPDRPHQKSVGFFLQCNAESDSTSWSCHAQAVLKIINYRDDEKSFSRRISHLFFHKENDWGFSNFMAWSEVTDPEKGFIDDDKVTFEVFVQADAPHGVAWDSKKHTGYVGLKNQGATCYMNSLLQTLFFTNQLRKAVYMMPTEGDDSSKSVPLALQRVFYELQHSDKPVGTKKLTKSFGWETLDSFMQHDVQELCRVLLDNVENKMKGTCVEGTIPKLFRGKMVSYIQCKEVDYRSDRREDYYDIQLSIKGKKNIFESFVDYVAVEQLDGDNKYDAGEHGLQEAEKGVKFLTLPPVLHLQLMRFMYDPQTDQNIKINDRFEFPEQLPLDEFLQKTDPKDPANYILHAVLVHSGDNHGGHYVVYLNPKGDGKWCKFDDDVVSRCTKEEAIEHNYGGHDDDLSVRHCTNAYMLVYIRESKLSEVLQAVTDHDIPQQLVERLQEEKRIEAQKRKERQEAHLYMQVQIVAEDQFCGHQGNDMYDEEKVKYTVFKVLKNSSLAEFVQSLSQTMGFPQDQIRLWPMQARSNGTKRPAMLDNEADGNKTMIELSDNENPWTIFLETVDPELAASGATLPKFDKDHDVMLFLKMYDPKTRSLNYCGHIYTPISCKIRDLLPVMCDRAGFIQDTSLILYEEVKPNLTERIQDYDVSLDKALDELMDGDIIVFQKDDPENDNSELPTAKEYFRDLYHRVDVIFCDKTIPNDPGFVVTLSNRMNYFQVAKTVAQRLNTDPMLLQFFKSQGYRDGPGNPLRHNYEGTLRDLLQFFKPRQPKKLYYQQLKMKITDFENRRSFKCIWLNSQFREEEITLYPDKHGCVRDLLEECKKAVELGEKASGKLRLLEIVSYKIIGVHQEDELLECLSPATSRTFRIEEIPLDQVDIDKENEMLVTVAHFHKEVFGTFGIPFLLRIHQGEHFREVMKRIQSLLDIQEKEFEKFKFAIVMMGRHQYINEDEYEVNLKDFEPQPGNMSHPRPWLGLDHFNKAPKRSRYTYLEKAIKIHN

B1: V5/vIRF4 1-305 (other)
single chain: MPKAGGSEWATLWIIDALENNKFPYFSWFDRNNLLFAAPAPLPAGSDIPPGWYSVYHAFDEECDRVYGPSPVVGQTVYGRFGRLLRGTRRAVVRNDLRYSDTFGGSYVVWQLVRTPFKNCTYCYGAAYGPEKLQRFIQCLLSPPMQTTATRRSDTREQSYEEAGAAAPAPPKAPSGLRGRPRKSNRYYNVGDITTEQKAACSVWIPVNEGASTSGMGSSGTRQVTQASSFTWRVPGDPPAPSTLTGPSDPHSSGAGLPGTAPPKPQHETRLAGTVSGVSGVAQTPGDTGQLAPPMRDGSRLPSTS
[1]
  binding result: binds

B2: V5/vIRF4 1-758 (other)
single chain: MPKAGGSEWATLWIIDALENNKFPYFSWFDRNNLLFAAPAPLPAGSDIPPGWYSVYHAFDEECDRVYGPSPVVGQTVYGRFGRLLRGTRRAVVRNDLRYSDTFGGSYVVWQLVRTPFKNCTYCYGAAYGPEKLQRFIQCLLSPPMQTTATRRSDTREQSYEEAGAAAPAPPKAPSGLRGRPRKSNRYYNVGDITTEQKAACSVWIPVNEGASTSGMGSSGTRQVTQASSFTWRVPGDPPAPSTLTGPSDPHSSGAGLPGTAPPKPQHETRLAGTVSGVSGVAQTPGDTGQLAPPMRDGSRLPSTSPWIPACFPWGDLPVTGWWPQGASGLPEKVHPPTTGQFDPLSPRWTYTGIPSSQLNPAAPSWIPPHAQAGTFVGEFSQGAPLAPQGLLPQSGQCASAWLPRRETGAEGACGASTEGRAPQGAASERVYPFEPQPPSAPAPGYAKPSCYNWSPLAEPPATRPIRAPVWHPPVGHAVVPEVRTPLWIPWSSGGAPNQGLSHTQGGASATPSAGAPPTPEVAERQEPSSSGIPYVCQGDNMATGYRRVTTSSGALEVEIIDLTGDSDTPSTTVASTPLPVSGPRVFQPTVLYSAPEPAVNPEVSHLPTELERRECVCPGSGERPRVPLVSTYAGDRYAVGGYGPEQSLVPPPLGLPLTLSNLQGEDICTWEEGLGNILSELQEEPSSSTRQATDRRRPRSRSPHGRRTPVSHSGPEKPPSKMFFDPPDSQRVSFVVEIFVYGNLRGTLRREGDAGEA
[1]
  binding result: binds

B3: GST-vIRF4 1-153 (other)
single chain: MPKAGGSEWATLWIIDALENNKFPYFSWFDRNNLLFAAPAPLPAGSDIPPGWYSVYHAFDEECDRVYGPSPVVGQTVYGRFGRLLRGTRRAVVRNDLRYSDTFGGSYVVWQLVRTPFKNCTYCYGAAYGPEKLQRFIQCLLSPPMQTTATRRS
[2]
  binding result: no binding

B4: vIRF4^153-216 (other)
chain: SDTREQSYEEAGAAAPAPPKAPSGLRGRPRKSNRYYNVGDITTEQKAACSVWIPVNEGASTSGM
[3]
  Ka: 1.84e+06 M⁻¹
  Kd: 0.54 µM
  TΔS: -30.8 kJ/mol
  n: 0.82
  ΔG: -35.2 kJ/mol
  ΔH: -65.9 kJ/mol

B5: V5/vIRF4 1-454 (other)
single chain: MPKAGGSEWATLWIIDALENNKFPYFSWFDRNNLLFAAPAPLPAGSDIPPGWYSVYHAFDEECDRVYGPSPVVGQTVYGRFGRLLRGTRRAVVRNDLRYSDTFGGSYVVWQLVRTPFKNCTYCYGAAYGPEKLQRFIQCLLSPPMQTTATRRSDTREQSYEEAGAAAPAPPKAPSGLRGRPRKSNRYYNVGDITTEQKAACSVWIPVNEGASTSGMGSSGTRQVTQASSFTWRVPGDPPAPSTLTGPSDPHSSGAGLPGTAPPKPQHETRLAGTVSGVSGVAQTPGDTGQLAPPMRDGSRLPSTSPWIPACFPWGDLPVTGWWPQGASGLPEKVHPPTTGQFDPLSPRWTYTGIPSSQLNPAAPSWIPPHAQAGTFVGEFSQGAPLAPQGLLPQSGQCASAWLPRRETGAEGACGASTEGRAPQGAASERVYPFEPQPPSAPAPGYAKPSCYNW
[1]
  binding result: binds

B6: GST-vIRF4^220-236 (other)
chain: GTRQVTQASSFTWRVPG
notes: not shown: GST tag of the pEBG-GST vector
[4]
  binding result: binds

B7: V5/vIRF4 1-605 (other)
single chain: MPKAGGSEWATLWIIDALENNKFPYFSWFDRNNLLFAAPAPLPAGSDIPPGWYSVYHAFDEECDRVYGPSPVVGQTVYGRFGRLLRGTRRAVVRNDLRYSDTFGGSYVVWQLVRTPFKNCTYCYGAAYGPEKLQRFIQCLLSPPMQTTATRRSDTREQSYEEAGAAAPAPPKAPSGLRGRPRKSNRYYNVGDITTEQKAACSVWIPVNEGASTSGMGSSGTRQVTQASSFTWRVPGDPPAPSTLTGPSDPHSSGAGLPGTAPPKPQHETRLAGTVSGVSGVAQTPGDTGQLAPPMRDGSRLPSTSPWIPACFPWGDLPVTGWWPQGASGLPEKVHPPTTGQFDPLSPRWTYTGIPSSQLNPAAPSWIPPHAQAGTFVGEFSQGAPLAPQGLLPQSGQCASAWLPRRETGAEGACGASTEGRAPQGAASERVYPFEPQPPSAPAPGYAKPSCYNWSPLAEPPATRPIRAPVWHPPVGHAVVPEVRTPLWIPWSSGGAPNQGLSHTQGGASATPSAGAPPTPEVAERQEPSSSGIPYVCQGDNMATGYRRVTTSSGALEVEIIDLTGDSDTPSTTVASTPLPVSGPRVFQPTVLYSAPEPAVNPEVS
[1]
  binding result: binds

B8: vIRF4 (Kaposi's-sarcoma-associated-herpesvirus vIRF4), full length wild type (other)
chain: MPKAGGSEWATLWIIDALENNKFPYFSWFDRNNLLFAAPAPLPAGSDIPPGWYSVYHAFDEECDRVYGPSPVVGQTVYGRFGRLLRGTRRAVVRNDLRYSDTFGGSYVVWQLVRTPFKNCTYCYGAAYGPEKLQRFIQCLLSPPMQTTATRRSDTREQSYEEAGAAAPAPPKAPSGLRGRPRKSNRYYNVGDITTEQKAACSVWIPVNEGASTSGMGSSGTRQVTQASSFTWRVPGDPPAPSTLTGPSDPHSSGAGLPGTAPPKPQHETRLAGTVSGVSGVAQTPGDTGQLAPPMRDGSRLPSTSPWIPACFPWGDLPVTGWWPQGASGLPEKVHPPTTGQFDPLSPRWTYTGIPSSQLNPAAPSWIPPHAQAGTFVGEFSQGAPLAPQGLLPQSGQCASAWLPRRETGAEGACGASTEGRAPQGAASERVYPFEPQPPSAPAPGYAKPSCYNWSPLAEPPATRPIRAPVWHPPVGHAVVPEVRTPLWIPWSSGGAPNQGLSHTQGGASATPSAGAPPTPEVAERQEPSSSGIPYVCQGDNMATGYRRVTTSSGALEVEIIDLTGDSDTPSTTVASTPLPVSGPRVFQPTVLYSAPEPAVNPEVSHLPTELERRECVCPGSGERPRVPLVSTYAGDRYAVGGYGPEQSLVPPPLGLPLTLSNLQGEDICTWEEGLGNILSELQEEPSSSTRQATDRRRPRSRSPHGRRTPVSHSGPEKPPSKMFFDPPDSQRVSFVVEIFVYGNLRGTLRREGDAGEAMLCSWPVGDTLGHLCQSFVPELLRIPRLTVPSPEQMEILNRVFEGLGHGFPIFCSMSGIYSRNATQVEGWWFGNPNSRYERILRSFSPRVPQQLFNTARYLATTAAIPQTPLSVNPVTCGTVFFGASPASTENFQNVPLTVKIFIGSIWDSLH
[5]
  binding result: binds

B9: GST-vIRF4 153-305 (other)
single chain: SDTREQSYEEAGAAAPAPPKAPSGLRGRPRKSNRYYNVGDITTEQKAACSVWIPVNEGASTSGMGSSGTRQVTQASSFTWRVPGDPPAPSTLTGPSDPHSSGAGLPGTAPPKPQHETRLAGTVSGVSGVAQTPGDTGQLAPPMRDGSRLPSTS
[2]
  binding result: binds

B10: GST-vIRF4^202-256 (other)
chain: SVWIPVNEGASTSGMGSSGTRQVTQASSFTWRVPGDPPAPSTLTGPSDPHSSGAG
notes: as for B6
[4]
  binding result: binds
